Reference: US20030040042A1, “Recombinant fibroblast growth factors” (published 2003)
Blank lines part the entries; values can stand above or below the molecule they belong to.

Tests used:
[1] = target: FGF receptor on Balb/c 3T3 cells
[2] = target: FGF receptor on Balb/c 3T3 cells; remark: listed apart in the source
[3] = target: FGF receptor on Balb/c 3T3 cells; assay: competition with [125I]-bFGF on Balb/c 3T3 cells, no heparin
[4] = target: FGF receptor on Balb/c 3T3 cells; assay: competition with [125I]-bFGF on Balb/c 3T3 cells, 1 ug/ml heparin
[5] = target: FGF receptor on Balb/c 3T3 cells; assay: competition with [125I]-bFGF on Balb/c 3T3 cells
[6] = target: FGF receptor on bovine adrenal cortex capillary endothelial (ACE) cells (bovine) (UniProt P12820)
[7] = target: T1, FGF receptor on bovine adrenal cortex capillary endothelial (ACE) cells (bovine, UniProt P12820); assay: cell-based or functional assay
T1 sequence: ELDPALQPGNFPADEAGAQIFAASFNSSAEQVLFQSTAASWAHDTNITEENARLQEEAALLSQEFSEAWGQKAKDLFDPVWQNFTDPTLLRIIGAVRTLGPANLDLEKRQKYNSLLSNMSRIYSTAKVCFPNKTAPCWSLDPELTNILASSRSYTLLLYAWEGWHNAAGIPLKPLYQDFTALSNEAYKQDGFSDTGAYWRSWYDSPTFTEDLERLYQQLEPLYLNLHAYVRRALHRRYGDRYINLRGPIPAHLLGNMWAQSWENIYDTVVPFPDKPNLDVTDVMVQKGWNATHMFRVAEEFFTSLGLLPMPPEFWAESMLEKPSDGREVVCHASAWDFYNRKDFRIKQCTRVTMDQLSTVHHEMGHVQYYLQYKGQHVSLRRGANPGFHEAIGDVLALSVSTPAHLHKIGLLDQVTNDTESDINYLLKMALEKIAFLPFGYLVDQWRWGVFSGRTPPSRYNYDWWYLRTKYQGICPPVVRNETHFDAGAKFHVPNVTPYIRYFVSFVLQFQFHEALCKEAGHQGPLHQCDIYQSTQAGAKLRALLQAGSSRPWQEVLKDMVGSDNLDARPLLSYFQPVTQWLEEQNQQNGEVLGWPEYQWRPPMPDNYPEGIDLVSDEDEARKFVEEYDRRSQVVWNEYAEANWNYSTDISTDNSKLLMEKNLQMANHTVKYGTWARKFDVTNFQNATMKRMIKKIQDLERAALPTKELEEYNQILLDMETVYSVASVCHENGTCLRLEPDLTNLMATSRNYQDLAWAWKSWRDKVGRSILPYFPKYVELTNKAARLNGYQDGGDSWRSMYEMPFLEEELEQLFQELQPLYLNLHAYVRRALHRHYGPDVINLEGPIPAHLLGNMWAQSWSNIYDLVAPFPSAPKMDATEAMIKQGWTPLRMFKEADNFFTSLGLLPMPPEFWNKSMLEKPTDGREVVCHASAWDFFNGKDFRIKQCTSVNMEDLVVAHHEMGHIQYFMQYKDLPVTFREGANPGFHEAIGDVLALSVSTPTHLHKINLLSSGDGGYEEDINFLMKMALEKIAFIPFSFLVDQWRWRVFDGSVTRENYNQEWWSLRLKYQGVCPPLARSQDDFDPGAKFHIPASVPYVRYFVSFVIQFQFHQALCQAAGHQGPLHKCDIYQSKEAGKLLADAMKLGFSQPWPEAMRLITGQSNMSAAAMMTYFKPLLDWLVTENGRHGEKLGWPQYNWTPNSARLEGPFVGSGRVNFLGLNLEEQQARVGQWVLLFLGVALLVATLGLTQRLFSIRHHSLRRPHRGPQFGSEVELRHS

3T3 Mito., 1 ug/ml heparin (ED50 wild type / ED50 analog x 100%) (% of wild type) [1]: 100
3T3 Mito., no heparin (ED50 wild type / ED50 analog x 100%) (% of wild type) [1]: 50
inhibition of the activity of 1 ng/ml wild type bFGF in the 3T3 mitogenic assay, no heparin [2]: > 95%
Molecule: bFGF(25-155) (from UniProt P09038-2) (ligand)

FGF-Rc Comp. (ED50 analog / ED50 wild type FGF) [3]: 1
FGF-Rc Comp. (ED50 analog / ED50 wild type FGF) [4]: 1
EC50 [5]: 10 ng/mL
3T3 Mito. (thymidine uptake), EC50 (ED50) [1]: 0.63 ng/mL
3T3 Mito., 1 ug/ml heparin (ED50 wild type / ED50 analog x 100%) (% of wild type) [1]: 100
3T3 Mito., no heparin (ED50 wild type / ED50 analog x 100%) (% of wild type) [1]: 100
ACE Mito., 1 ug/ml heparin (ED50 wild type / ED50 analog x 100%) (% of wild type) [6]: 100
ACE Mito., no heparin (ED50 wild type / ED50 analog x 100%) (% of wild type) [6]: 100
ACE cell proliferation, EC50 (ED50) [6]: 0.16 ng/mL
3T3 mitogenic assay, ED50 in the absence of bFGF(25-155) [2]: < 1 ng/mL
3T3 mitogenic assay, ED50 in the presence of 10 ng/ml bFGF(25-155) [2]: 10 ng/mL
3T3 mitogenic assay, ED50 in the presence of 100 ng/ml bFGF(25-155) [2]: 100 ng/mL
Molecule: recombinant human basic FGF (wild type) (from UniProt P09038-2) (ligand)

ACE Mito., 1 ug/ml heparin (ED50 wild type / ED50 analog x 100%) [7]: 72 % of wild type
ACE Mito., no heparin (ED50 wild type / ED50 analog x 100%) [7]: 2 % of wild type
FGF-Rc Comp. (ED50 analog / ED50 wild type FGF) [3]: 0.45
FGF-Rc Comp. (ED50 analog / ED50 wild type FGF) [4]: 0.5
3T3 Mito., 1 ug/ml heparin (ED50 wild type / ED50 analog x 100%) (% of wild type) [1]: 144
3T3 Mito., no heparin (ED50 wild type / ED50 analog x 100%) (% of wild type) [1]: 65
B1: bFGF-C34/78/101S (ligand)
chain: MAAGSITTLPALPEDGGSGAFPPGHFKDPKRLYSKNGGFFLRIHPDGRVDGVREKSDPHIKLQLQAEERGVVSIKGVSANRYLAMKEDGRLLASKCVTDESFFFERLESNNYNTYRSRKYTSWYVALKRTGQYKLGSKTGPGQKAILFLPMSAKS
